Experimental findings from publication PMC6487263, “Kinetic and structural analysis of human ALDH9A1” (Bioscience Reports, 2019) are described below.

What all share (assay): purified protein
Holding throughout (assay type): biochemical, Homo sapiens
What all share (conditions): 1 mM NAD+, 150 mM sodium pyrophosphate pH 7.5, 30 °C

Substrate in data set [1]: C[N+](C)(C)CCCC=O
Substrate in data set [2]: O=CCc1ccc(O)c(O)c1
Substrate in data set [3]: NCCC=O
Substrate in data set [4]: N=C(N)NCCCC=O
Substrate in data set [5]: NCCCC=O

B1: human ALDH9A1 (HsALDH9A1) (Homo sapiens) (protein)
chain: MSTGTFVVSQPLNYRGGARVEPADASGTEKAFEPATGRVIATFTCSGEKEVNLAVQNAKAAFKIWSQKSGMERCRILLEAARIIREREDEIATMECINNGKSIFEARLDIDISWQCLEYYAGLAASMAGEHIQLPGGSFGYTRREPLGVCVGIGAWNYPFQIASWKSAPALACGNAMVFKPSPFTPVSALLLAEIYSEAGVPPGLFNVVQGGAATGQFLCQHPDVAKVSFTGSVPTGMKIMEMSAKGIKPVTLELGGKSPLIIFSDCDMNNAVKGALMANFLTQGQVCCNGTRVFVQKEILDKFTEEVVKQTQRIKIGDPLLEDTRMGPLINRPHLERVLGFVKVAKEQGAKVLCGGDIYVPEDPKLKDGYYMRPCVLTNCRDDMTCVKEEIFGPVMSILSFDTEAEVLERANDTTFGLAAGVFTRDIQRAHRVVAELQAGTCFINNYNVSPVELPFGGYKKSGFGRENGRVTIEYYSQLKTVCVEMGDVESAF
notes: full-length 494-residue protein, His-tag kept (pCDFDuet, BamHI/XhoI), recombinant from E. coli; silent polymorphism at Ile110 codon
As a reminder, the Km is the substrate concentration at which the rate is half of its maximum. As a reminder, the Vmax is the rate approached at saturating substrate. As to B1, the Km in the data set “purified protein [1]” was determined as 6 ± 1 µM; in the data set “purified protein [2]”, 11 ± 1 µM; in the data set “purified protein [3]”, 56 ± 7 µM; in “purified protein [4]”, 21 ± 2 µM; in the data set “purified protein [5]” it was 67 ± 7 µM. Moreover, the Vmax was 0.588 µmol/min/mg in the data set “purified protein [1]”; 0.03 µmol/min/mg in “purified protein [2]”; 0.108 µmol/min/mg in “purified protein [3]”; 0.114 µmol/min/mg in the data set “purified protein [4]”; 0.108 µmol/min/mg in the data set “purified protein [5]”.
